Test results taken from the supplement of paper PMC12338614.
± gives the uncertainty stated by the source.

B1: library; numbered along this chain (parent)
chain: MEVVDPQQLGMFTEGELMSVGMDTFIHRIDSTEVIYQPRRKRAKLIGKYLMGDLLGEGSYGKVKEVLDSETLCRRAVKILKKKKLRRIPNGEANVKKEIQLLRRLRHKNVIQLVDVLYNEEKQKMYMVMEYCVCGMQEMLDSVPEKRFPVCQAHGYFCQLIDGLEYLHSQGIVHKDIKPGNLLLTTGGTLKISDLGVAEALHPFAADDTCRTSQGSPAFQPPEIANGLDTFSGFKVDIWSAGVTLYNITTGLYPFEGDNIYKLFENIGKGSYAIPGDCGPPLSDLLKGMLEYEPAKRFSIRQIRQHSWFRKKHPPAEAPVPIPPSPDTKDRWRSMTVVPYLEDLHGADEDEDLFDIEDDIIYTQDFTVPGQVPEEEASHNGQRRGLPKAVCMNGTEAAQLSTKSRAEGRAPNPARKACSASSKIRRLSACKQQ

Variants of: B1
Experiment: STK11 functional score (HeLa growth suppression), rescaled enrichment; synonymous median = 1, nonsense median = 0 (normalised score)
Conditions: with HeLa; variant type: missense
In short: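 In HeLa, Bxb1 integrated POPCode codon-randomised libraries of codon-optimised STK11 at an AAVS1 landing pad; three regions were each transfected three times. Integrants, marked as BFP-negative and mCherry-positive, were FACS-sorted 4–5 days after electroporation and expanded for about two weeks before tiled gDNA amplicons were sequenced on NextSeq (~2 million reads per tile). Each functional score is a post/pre-selection log ratio corrected to wild type, rescaled to the synonymous and nonsense medians, and merged across codons and replicate transfections, with error estimated by bootstrapping.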

| Variant | STK11 functional score |
| --- | --- |
| D350P | 1.48 ± 0.16 |
| D350L | 1.6 ± 0.16 |
| D350T | 1.47 ± 0.14 |
| P221M | 0.39 ± 0.18 |
| W308Y | -0.119 ± 0.11 |
| W308R | -0.166 ± 0.096 |
| W308L | -0.172 ± 0.075 |
| V236W | 1.04 ± 0.19 |
| L140F | -0.0987 ± 0.078 |
| L140G | -0.0512 ± 0.082 |
| A414G | 1.21 ± 0.26 |
| V128W | 0.804 ± 0.43 |
| P203L | 1.27 ± 0.73 |
| C278D | 1.03 ± 0.54 |
| A397G | 1.14 ± 0.17 |
| A397H | 1.64 ± 0.3 |
| K83E | 1.48 ± 0.68 |
| V173A | 0.314 ± 0.31 |
| V173G | 1.15 ± 0.33 |
| V173W | 0.343 ± 0.097 |
| N94D | 1.31 ± 0.14 |

| Variant | STK11 functional score |
| --- | --- |
| N94V | 0.637 ± 0.13 |
| K44R | 1.12 ± 0.4 |
| Q170R | 1.16 ± 0.33 |
| Q170H | 0.738 ± 0.12 |
| Q170D | -0.0762 ± 0.095 |
| T395C | 1.61 ± 0.23 |
| M11S | 1.33 ± 0.41 |
| I303V | 1.43 ± 0.25 |
| F309S | 0.538 ± 0.12 |
| K146I | 0.185 ± 0.12 |
| K146N | 1.16 ± 0.26 |
| N90P | 1.08 ± 0.3 |
| N90G | 1.63 ± 0.19 |
| N90I | 0.781 ± 0.2 |
| N119V | 0.707 ± 0.14 |
| A318P | 1.59 ± 0.26 |
| N380C | 1.57 ± 0.28 |
| N380M | 1.55 ± 0.12 |
| G346C | 1.22 ± 0.13 |
| E349D | 1.35 ± 0.44 |
| P222S | 1.15 ± 0.12 |

| Variant | STK11 functional score |
| --- | --- |
| Q364I | 1.26 ± 0.47 |
| G276A | 1.41 ± 0.14 |
| G276P | 1.22 ± 0.22 |
| G276R | 1.35 ± 0.18 |
| D208V | 1.06 ± 0.12 |
| A429D | 1.52 ± 0.12 |
| A429V | 1.47 ± 0.33 |
| K287Q | 1.19 ± 0.51 |
| V150Q | 0.265 ± 0.12 |
| G15L | 1.48 ± 0.2 |
| P326A | 0.8 ± 0.72 |
| K311W | 0.995 ± 0.075 |
| T249P | -0.0108 ± 0.27 |
| T249I | 0.664 ± 0.24 |
| R75G | 1.56 ± 0.46 |
| R75M | 0.00187 ± 0.29 |
| R75Y | 1.5 ± 0.23 |
| R75S | 0.619 ± 0.16 |
| K312S | 1.29 ± 0.3 |
| P413H | 1.61 ± 0.12 |
| P413K | 1.55 ± 0.14 |

| Variant | STK11 functional score |
| --- | --- |
| E121Y | 1.36 ± 0.37 |
| E121N | 1.57 ± 0.23 |
| D162V | 1.17 ± 0.11 |
| K388A | 1.17 ± 0.65 |
| K388H | 1.12 ± 0.26 |
| P275R | 1.12 ± 0.28 |
| D365V | 1.14 ± 0.41 |
| S422C | 1.44 ± 0.095 |
| I356V | 1.46 ± 0.28 |
| G188A | 0.938 ± 0.19 |
| N109M | 0.647 ± 0.075 |
| N109S | 0.492 ± 0.18 |
| G180E | 1.09 ± 0.67 |
| G180H | 1.65 ± 0.29 |
| L184T | 1.49 ± 0.24 |
| E120P | 1.42 ± 0.28 |
| K191F | 0.589 ± 0.19 |
| S69R | 1.1 ± 0.44 |
| S69G | 1.69 ± 0.28 |
| P339Q | 1.52 ± 0.16 |
